US20150141622A1 (published 2015)

Biological target: T1, mature form of human VEGF-C (human, UniProt P49767 103-227)
T1 sequence: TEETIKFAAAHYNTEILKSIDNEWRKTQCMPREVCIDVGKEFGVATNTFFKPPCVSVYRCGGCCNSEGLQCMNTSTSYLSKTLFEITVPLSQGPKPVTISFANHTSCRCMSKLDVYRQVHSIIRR
Assay: cell-based or functional assay

Molecule: VEGFR-2-Ig (Fc fusion)
- VEGF-C dependent viability (Ba/F3 VEGFR-3/EpoR, MTT) (fold molar excess): 10

B1: VEGFR-3-Ig fusion protein (first three Ig-homology domains of VEGFR-3 and IgG Fc domain) (Fc fusion, not shown: a dimerising Fc or GST)
chain: YSMTPPTLNITEESHVIDTGDSLSISCRGQHPLEWAWPGAQEAPATGDKDSEDTGVVRDCEGTDARPYCKVLLLHEVHANDTGSYVCYYKYIKARIEGTTAASSYVFVRDFEQPFINKPDTLLVNRKDAMWVPCLVSIPGLNVTLRSQSSVLWPDGQEVVWDDRRGMLVSTPLLHDALYLQCETTWGDQDFLSNPFLVHITGNELYDIQLLPRKSLELLVGEKLVLNCTVWAEFNSGVTFDWDYPGKQAERGKWVPERRSQQTHTELSSILTIHNVSQHDLGSYVCKANNGIQRFRESTEVIVHE
- VEGF-C-dependent cell survival (Ba/F3 VEGFR-3/EpoR, MTT): 0.5 molar ratio (VEGFR-3-Ig:VEGF-C)
